According to publication PMC4358367, “Structural basis of diverse membrane target recognitions by ankyrins” (eLife, 2014):
Substitutions are numbered along the chain they refer to. Names and notes keep the numbering of the source. Like-named read-outs stand apart in the source and are kept apart here.

Experiments:
[1] = target: T1, AnkG_repeats (24 ANK repeats of rat 190 kDa ankyrin-G, residues 38–855), O70511; experiment: ITC; conditions: chain shown with the change
T1 chain: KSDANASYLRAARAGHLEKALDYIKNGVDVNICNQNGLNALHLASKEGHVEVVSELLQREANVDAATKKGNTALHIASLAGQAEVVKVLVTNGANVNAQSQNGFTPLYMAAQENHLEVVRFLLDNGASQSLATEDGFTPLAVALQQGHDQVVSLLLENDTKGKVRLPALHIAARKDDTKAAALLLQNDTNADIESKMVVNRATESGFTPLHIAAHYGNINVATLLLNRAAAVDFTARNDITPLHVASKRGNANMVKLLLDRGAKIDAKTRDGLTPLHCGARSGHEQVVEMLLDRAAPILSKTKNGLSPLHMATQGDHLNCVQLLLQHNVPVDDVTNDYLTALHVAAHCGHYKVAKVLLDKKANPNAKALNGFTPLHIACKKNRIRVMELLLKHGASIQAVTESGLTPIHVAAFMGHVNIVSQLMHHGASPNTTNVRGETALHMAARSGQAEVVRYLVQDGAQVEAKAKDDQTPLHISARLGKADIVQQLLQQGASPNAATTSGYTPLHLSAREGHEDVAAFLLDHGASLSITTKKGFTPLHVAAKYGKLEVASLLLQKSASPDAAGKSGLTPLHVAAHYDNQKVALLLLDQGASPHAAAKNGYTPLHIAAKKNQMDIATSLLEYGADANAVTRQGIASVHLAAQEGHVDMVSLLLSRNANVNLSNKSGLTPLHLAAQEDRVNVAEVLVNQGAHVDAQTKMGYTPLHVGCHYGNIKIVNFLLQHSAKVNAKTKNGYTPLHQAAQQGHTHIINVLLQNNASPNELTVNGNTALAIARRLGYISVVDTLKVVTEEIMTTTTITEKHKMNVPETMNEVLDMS

[2] = target: T2, AnkG_repeats (24 ANK repeats of rat 190 kDa ankyrin-G, residues 38–855) (rat, UniProt O70511 38-855); experiment: ITC
T2 chain: T1 chain

[3] = target: T3, AnkG ANK repeats R1–6 (truncation of AnkG_repeats with C-terminal capping sequence) (rat | human); experiment: ITC
T3 chain: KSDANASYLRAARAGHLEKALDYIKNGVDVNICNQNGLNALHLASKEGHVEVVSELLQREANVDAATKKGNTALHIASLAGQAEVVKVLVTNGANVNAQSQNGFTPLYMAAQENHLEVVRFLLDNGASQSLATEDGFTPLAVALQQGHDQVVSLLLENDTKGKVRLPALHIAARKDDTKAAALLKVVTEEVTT

[4] = target: T4, Nav1.2 ABD C-terminal half (UniProt Q99250)
T4 chain: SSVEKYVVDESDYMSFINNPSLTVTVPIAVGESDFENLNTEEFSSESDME

[5] = target: T5, AnkG_repeats (Rattus norvegicus, UniProt O70511); experiment: ITC binding to AnkG_repeats WT; conditions: 25°C, 50 mM Tris, 100 mM NaCl, 1 mM EDTA, 1 mM DTT, pH 7.5, one-site binding model, AnkG_repeats WT
T5 construct: thioredoxin-His6 (N); made in house; host or cells: Escherichia coli BL21 (DE3)
T5 sequence (O70511 38-855): T1 chain
Text: The coding sequences of AnkB_repeats (residues 28–873) were PCR amplified using the full-length human 220 kDa AnkB as the template. The coding sequences of the AnkR constructs, including AnkR_repeats (residues 42–853), and the full length AnkR C-terminal domain (residues 1529–1907), were PCR amplified from a mouse muscle cDNA library. The coding sequence of AnkG_repeats (residues 38–855) were PCR amplified using the full-length rat 190 kDa AnkG as the template. The fusion construct of AnkR_AS and AnkB_repeats was made by standard two-step PCR with a coding sequence of thrombin recognition residues ‘GSLVPRGS’ as the linker. This construct was used to crystallize and determine the complex structure. The same strategy was used in making other fusion constructs, including the Nav1.2_ABD-C/AnkB_repeats_R1–9 fusion construct containing residues 1103–1129 from mouse Nav1.2 and human AnkB residues 28–318 followed by a capping sequence corresponding to the αB of R24 (residues 814–822) and the AnkR_AS/AnkG_repeats fusion construct. For truncation mutations of ANK repeats constructs, the same capping sequence was added to the appropriate region of the C-terminus of each construct for protein stabilization. Mouse Nav1.2 (NP_001092768.1) and mouse neurofascin (CAD65849.1) were used here for studying their interaction with ankyrins. Peptides for mouse KCNQ2 (NP_034741.2, residues 826–845) and mouse Cav1.3 (NP_083257.2, residues 2134–2166) were commercially synthesized. For simplicity, we used human 220 kDa AnkB for the amino acid numbering throughout the manuscript. For the corresponding point mutations made on AnkG_repeats, each residue number should be increased by 10. All point mutations were created using the Quick Change site-directed mutagenesis kit and confirmed by DNA sequencing. […]
Isothermal titration calorimetry (ITC) measurements were carried out on a VP-ITC MicroCal calorimeter (MicroCal, Northampton, MA) at 25°C. […] The titration data were analyzed using the program Origin 7.0 and fitted by the one-site binding model.

[6] = target: T6, Nav1.2_ABD (ankyrin binding domain of Nav1.2, residues 1035–1129); experiment: ITC; conditions: chain shown with the change
T6 chain: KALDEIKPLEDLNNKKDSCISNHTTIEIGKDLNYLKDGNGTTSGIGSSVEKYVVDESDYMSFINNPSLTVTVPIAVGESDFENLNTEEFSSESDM

[7] = target: T6, Nav1.2_ABD (ankyrin binding domain of …); experiment: ITC; conditions: chain shown with the change
[8] = target: T7, Nfasc_ABD (28-residue fragment of the neurofascin cytoplasmic tail, residues 1187–1214); experiment: ITC; conditions: chain shown with the change;; parent: 0.21 ± 0.02
T7 chain: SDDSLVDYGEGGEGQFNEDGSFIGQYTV

[9] = target: T6, Nav1.2_ABD (ankyrin binding domain of …); experiment: ITC; conditions: chain shown with the change
[10] = target: T6, Nav1.2_ABD (ankyrin binding domain of …); experiment: ITC; conditions: chain shown with the change
[11] = target: T2, AnkG_repeats (24 ANK repeats of rat 190 …); experiment: ITC

B1: Nav1.2_ABD (ankyrin binding domain of Nav1.2, residues 1035–1129) E1112Q (protein)
chain: T6 chain with E78Q
[1]
  Kd: 4.6 µM

B2: Nav1.2_ABD (ankyrin binding domain of Nav1.2, residues 1035–1129) E1112A (protein)
chain: T6 chain with E78A
[1]
  Kd: 4.3 µM

## TVTVPIAVGESDFENLNTEEFSSESDM (domain or fragment) [Nav1.2_ABD-C (27-residue motif of loop 2, residues 1103–1129)]
[2]
  Kd: 2.7 µM
[3]
  Kd: 2.3 µM

## MMNEDA [AnkB repeats R1-6]
[4]
  Kd: ~2.3 µM

B3: ABD-N (1035 - 1102): N-terminal 68-residue fragment of Nav1.2 loop 2 (residues 1035–1102) (protein, UniProt Q99250 1035-1102, looked up, fragment)
chain: ALDEIKPLEDLNNKKDSCISNHTTIEIGKDLNYLKDGNGTTSGIGSSVEKYVVDESDYMSFINNPSLT
[5]
  Kd: 8.1 ± 1.1 µM
[5]; listed as ABD-N
  Kd: ~8 µM

B4: Nav1.2 ABD without the C-terminal less-conserved 10 residues of ABD-C (domain or fragment)
chain: KALDEIKPLEDLNNKKDSCISNHTTIEIGKDLNYLKDGNGTTSGIGSSVEKYVVDESDYMSFINNPSLTVTVPIAVGESDFENLN
[2]
  Kd: 0.17 µM

B5: AnkG_repeats (24 ANK repeats of rat 190 kDa ankyrin-G, residues 38–855), O70511 F131Q; F164Q (protein)
chain: T1 chain with F104Q, F137Q
[6]
  Kd: 6.6 µM
[7]
  Kd: 6.6 µM

B6: AnkG_repeats (24 ANK repeats of rat 190 kDa ankyrin-G, residues 38–855), O70511 I267Q; L300Q (protein)
chain: T1 chain with I240Q, L273Q
[6]
  Kd: 0.22 µM
[8]
  Kd: 2.8 µM
[9]
  Kd: 0.22 µM

B7: AnkG_repeats (24 ANK repeats of rat 190 kDa ankyrin-G, residues 38–855), O70511 L366Q; F399Q; L432Q (protein)
chain: T1 chain with L339Q, F372Q, L405Q
[10]
  Kd: 1.1 µM
[6]
  Kd: 1.1 µM
[8]
  Kd: 6 µM

B8: Nfasc entire cytoplasmic tail (residues 1132–1240) (domain or fragment)
chain: KRSRGGKYPVREKKDVPLGPEDPKEEDGSFDYSDEDNKPLQGSQTSLDGTIKQQESDDSLVDYGEGGEGQFNEDGSFIGQYTVKKDKEETEGNESSEATSPVNAIYSLA
[11]
  Kd: 0.58 µM
